# Measured values as given in the DeepSol protein solubility set.
# Experiment: soluble on expression in E. coli; label from the status in PepcDB or PDB records
row,Sequence,soluble on expression in E. coli
1,MKFFSAAAFVAALVASGNACIGGGAGGAGGCCPPAQPGCGNPCQGAGPQYAAAPPPPPQYAAAPQGGAYPTAGK,not soluble
2,MKFKAVFISDTHLGTKDSKASLLLEFIKEIETKELYLVGDIIDGWSLKRKWIWLQPHSDVIQKILKAARKGVRVTYILGNHDEFIRPFLPLALGDHIRVVDEATYKAKNKKRYKIVHGDLYDSITMTKKWLAILGDNGYQFLLRLNDPINTLRQRLGFRRYWSFSQFIKDHVKQAVAYISDFEKILVAHAREEKFDGIICGHIHKAEIRDIEGITYMNCGDWVESCTALVETLEGEFKIIRWLDER,not soluble
3,MKFLITGGAGFIGSNLAFALQERYPEAKIYVLDNFSSGHFKNLIGFKGQVITGDISDPSLWDYVRKNFHFDVIFHEAAITDTTVEDQYFMMKTNADSFRYILDLAVEWNAKVIYASSAGVYGNSPPPMREDKGLEPENIYGFSKLMMDHIAMDYMERYPEMNIVGLRYFNVYGPREDYKGKTASMIYQLAVKMIKGERPRLFKWGEQRRDFVYIKDVIKANLLALEKNVSGIFNVGTGRARSFNEIVSILNKELGTNYEIEYFDCPYDFYQKFTEADLTKIREALGYEPEYSLEEGIKDYLPYIIKRVKK,soluble
4,MKFLLLLFPVLLLAKSPEKRSKVGIDEDNFLQLLEVEIARTLRSELSSDDDLQNLEGSSDSPEDDYLKKYDLILSSSTTSPKPITTTETTTRSTTTTTTTTTTTAAPSTTTSTVKITPKPLRSTPQCVPEKDCYKDSECPSGKCFGSELGLCDCNACITNKKCSSDLDCGGLRNGCDSNGNCDCVNAFHSHGYKLFVKVLLTFCHQTKCTKTSDNCYGLPCRVGKCKCFVGSLSVVTMCSRVLFVLLSTFTVLAGASVTCDLTQKPSTWAQVHAKNIFFNAYEPDNYFSLNGFCVNNDFMSHTLTYSSHVKLADSSVKVKTDVALNTNFDASLSNCGKDVSQVQWCQSHCQDKTLENVIVSSAVINGSLPLALAQQVFSTIGSPNDTSIASMQVDLNSQGVRIDYDYYDDFNFCSVYVKVKRPSMFPYALFITVQKIVGV,not soluble
5,MKFLTTNFLKCSVKACDTSNDNFPLQYDGSKCQLVQDESIEFNPEFLLNIVDRVDWPAVLTVAAELGNNALPPTKPSFPSSIQELTDDDMAILNDLHTLLLQTSIAEGEMKCRNCGHIYYIKNGIPNLLLPPHLV,not soluble
6,MKFMQYTEKVMQHFMNPHNVGVIENPDGYGKVGNPSCGDIMEIFIKVDNNIISDVKFRTFGCASAIASSSISTDMIIGKTVEEALKLTNKQVVDELGGLPAVKMHCSVLAEEAIKMAIEDYISKRDGKLEHHHHHH,soluble
7,MKFRGNFVCQPRAGPAESRPTRPFTPRPSATGSLFMSNQHFVSPDLIRQGFSRAMSDMYREEVPLYGALMELVAEVNAQVLERQPALARHLQSSGELQRLDLERHGAIRVGSAAELATLARLFAVMGMQPVGYYDLTPAGVPVHSTAFRAVHEAALQVSPFRVFTSLLRLELIDNPELRSFAEQVLARRQIFTPQVLELIQQAEAAGGLDAEDAERFIRQALETFRWHHHATVTAAQYASLSAQHRLIADVVAFKGPHINHLTPRTLDIDEVQRLMPARGITPKAVIEGPPRRECPILLRQTSFKALEESVAFTDQAQSQGSHSARFGEIEQRGAALTPKGRELYDRLLNAARDALGDFPNEANAQRYNQLMQEHFREFPDSHPAMREQGLAYFRYFVSETGLAARNQPQRPTTLAALLAAGHLSAEPLVYEDFLPVSAAGIFQSNLGDDSQSHYAGQSNRQAFEAALGRPTLDELQLYAQTQQRSLEHCAATLGLPALLEHHHHHH,not soluble
8,MKFSIIVPSYNSEKYIAELLNSLQNQSYDKKDFEVILVDDCSSDNTLNVVEAYKNKLNLIIKQLDTNSGGPGKPRNTALQLAQGEYVFFVDSDDYINKDTLKDVSKFVDQNHADVVLVKMEGVNGRGVPKSMFKETSDAVTLANSRIIYTLSPTKFYRTSLLRDHAIEFPEDLRSAEDQLFTMKAYVNAKRIAVLADKPYYYATKREGEHMSSAYVSPEDFYKVMSLITEEILNSPLENKNEVLGYFIDRHFSFSRTNNFSLKIADDKKEAWMDALGDFIQKVPTVVDELVNDSFKPLLHYARLKDMKHYQMVEESYKNGKFHSYSAQEGTLKIQFDEGEPYFVFKKLVKPDIRMSHFEFNDQGFELELEFISSIINPNHVASMIQLKLLSRNKKEFIYIPLTMNDQTRFKFKADLNDLMPYLIKEKVWDAHLEMRVDNMTIEKRIGNKRVKYPYSKETSTITQYNNQYYRFTPYFTKDFDNLSFYITSNKLNEMLAVEIKDKQTIQLRSLEFNYILSEGMTAVILPHMFTYGYLTSVTTKDTLTYHLSVGEKVKDKDLKKNFKIETPHLVLKYLEHHHHHH,soluble
9,MKGLRLPESMREELAKPHGKLYRGKGEKLLLEVEEISEAKPFCTVGDLVTASAIKVGLTPDLAVADGKTLREENVEFEQEAFDEVIETTNPPAHISCELISALLKALKLCEDGKKVLVFVDGEEDLAVVPLVKLLPLGALILYGQPGEGVVALKVDEEKKVLILNLLNKMEIIGECDELKYLLGGD,not soluble
10,MKGRTMNKPFITQAQLALYKYQPSSKYFGQSMAVIAQSEFVEFAKINKSENVIDCFSFFWNRRIKHDIWLISFSDNSEMVIKESLKDGHKIYKFEFCEIVDNCNFDDVFV,not soluble
11,MKGRVRIRGIYATALTSIFSSLSYEIVQQSVEISERFMQEINNLSADITIKDFEDDRGKIIVMGNGIIEDDLRNVFKYSFHWRSPVKLYSVIEIDESCTYANFKVEPCLREGIVIKPPYDGKIILSETKAVSKYAIVWRGKGITTFSEHIVDEEEKMRLLTLSLPLNRKGYNVKWRSNAKYVALNELKEDLERLILRYENREFRDQGEDFYLITLSLPDKLYLDEVRKNVVDTVKYHHMLKLSYNREVDSLEKDKKGSLGKLLEGLISDFLKIEHIKADGKVIYLRGGKVIEKEVNDNGYRIVLRREFEGNGILDGIGKKIEEGDYDIVEYNSDKWYQIHKYYSGIDNSLKGVYINISTPPELLRGKIRYLDLEIDIAIRDSEIALLDEDELNKKSIYMPSSLVNKAKEVVNYLINRIQQNKLS,not soluble
12,MKGVIMIIDGMADRPLEKLSGRTPLEAASTPNMDRIAESGINGIMDPIKPGVRAGSDTSHLSILGYDPYRVYTGRGPFEAAGVGLDVKPGDIAFRCNFATADEDMIITDRRAGRIRSGTSSIARTINSMTIEGFEDVEIIFRESTGHRAVLVLRGPGLGDKVSDADPKVEGKPPKKIKALDGSPESRKTAEVLNRIVKESYEILRDHPVNTGRIERGEAPANIILPRGAGAVPHVEKFQERYDLKAACIAETGLIKGIGHLTGMDVIDVEGATGGIDTDLESIKNAISSAIAADYDFLLINIDGADEAGHDGDLEGKVRFIERVDSILGDLMGDDIYFILTADHSTPVSVMDHTGDPVPIAITGPEVRVDDVTSFSERAAAAGGLCRIRGSDVMDILLDLMNKKEKFGALEHHHHHH,not soluble
13,MKHARRLRQLSQENLAHISGLSQSAVASYENGLRQSSRSIRKLAIALQVNLDWLETGAGPMELEAYPSGPAAWRPGLMEPGGERAAAPWPFRAVAHARYQALSARDKLLLEQLVRTFIDTCHADYGRAPPWPRER,not soluble
14,MKHDHFIVQSPAAPAQQLLLLFHGVGDNPVSMGQIGSWFAPQFPDALIVSIGGVEPCGPNGRQWFSLQGVTEENRQQRIDAIMPTFIEIVRYWQEKSGVSPLATALIGFSQGAIMSLESIKAAPDLASRVIAFNGRYATLPETATTATTIHLIHGGEDRVIDLAWAVSAEEALQQAGGDVTLDIVDDLGHAIDDRSMQLAIERLRYTVPKHY,not soluble
15,MKHKTKILHLKNGYDLWGASFGDPNSPIKILALHGGPGDDADEFIVWADQLKKFARIDAEVFVYEQLGSFHSESPDFSKKENVDNYLNYNYYINEVEEVRQLFDLDNFYLAGHSWGGILAYEYMLRSEYRQHLKAGIVFSMNDNIDDYVKQINKELLDMFGEQEFKYMKRIETSGDFSQKHYHQNLIELYKEHLNRDPNYNPDDGMKMMAEDVYHHFQGNNEFVVTGEMKNWNVSSRLPEFDIPVLETVGEFDTMSVESAKRSARKLPRGRFALTENGGHSHAQDHPKEFFEHLGSFIKDVKAGNV,not soluble
16,MKHLKLIVVILATLALGCLIKSPASVKFEIDRTTIPPSGVFHLIVTLNNTGKVGIVDAKLVVEGEEFFIVQSPKLEHPIKVGDSAKLIWTIKGPKIPGNYHFKAYLDIVDELNRVWRGITYETTIKVSSEELKDSVNLNLTVPSKVQGGKIIIVSGEIVNNLTVPVNIVSAEVSAEDLEVIDKEVPNKIDANSKGKVVFKFKVPPRYEKVRMYVIIEYASLQVSGKLIGEKDILIVWKPWELSPEDVKDIYGNLSEWIFYNDIVDGYWEWMYGSKSKIENRTMFRESVEDLLSVANSDVEAAKAVYNHIVTNYVIEKRRIKTLDPQKIMESSSISPTEAEILMVAYLRSLNIPARIVSVYSETDCTYSPFVEAYLSGKWYVIDFNHMFFGTREEFIATRWYPKIYQEITVFGKSLVALKPSPSGHAHEDLTKEYLSITEKALFNHLSKSLDPSTFSQVRIMLNSMNNEDERIFAMFLFTSAKPEEAKQLLEKVHVNELKKTIDAFYKFYRDIPWEEDFRIYWEKLINLYRLEHHHHHH,not soluble
17,MKHLLPFATVILALGIVGCQKVETTAPEKIKQDTQTKQQVSVTPERPSDAELNAVKVYHHMKYMEATAKLAGGTNKLLHTKKLPTEGSDAVVTPALDHLYSKGVIDLSNGPVTIEYPEVDEGRYYSIHVTDQEHYTIFDKIHPVGKFTFVRKGKNMEVPEGATVIESPGDYPHLFIRVQVKTPEDLVNALSIQEKITLTANSSKTLIVDNPIKHTLATHDVYSQNKELMVSSVNFTHQDYLRVSEYLGVVAPNMGPTGNIGLFGPIDSNEPNSDDYLFRAVGIIGHLGLPLEHAYYGPYFTNCENQLLMGDKTEVFTLPYEPEGVELFWSVTRYSALTRNTLPGKNDLINAYNTKPDANGNISITFSADSPNDGTYWMPVNSGEPYYFVVRYYKPDVNNLPEKPCSLEHHHHHH,not soluble
18,MKHWRPFRFPPLIDGAPLAPDAAAEVQASAADGFRQGMDAGYREGFDSGEAAGRDAGYQAGLEQGRAEGAAAARAETLAGLETLGAPLAAAIEQLNKLCRDYQAAQRDEVVDLVAKVARQVIRCELALKPVQILDLVEETLAALPQGAHSQGEVEVLLNPEECQRIRELAPERAAQWKLSADPSLAPGECRLRGAEFEADAGCQQRLERCVDSLREQLAAEEG,not soluble
19,MKIAGLKQLNTALKEAASGGFSRQASRWLEECGQDFLEIVQSELISTQTIDTEKLLSSFEKGAEDNLWIVQSGGLSLEVGTQLDYASFLNDGHWTSKQDVRWVPGRFQGSRFIYDPAASTGMALKRKWIPGTGYWDHALLLYEQLFEKSLESKLRQWLKKLLEHHHHHH,soluble
20,MKIAIASSGTDLGSEVSRFFGRAPYFMIVEMKKGNIESSEVIENPSASASGGAGIRTAQIIANNGVKAVIASSPGPNAFEVLNELGIKIYRATGTSVEENLKLFTEGNLEEIRSPGSGRGRRRR,soluble
21,MKIALIGATGHVGHYFLNEALQRGHAVTALVRDPSKLAARDGLCVVQADVSDPAQVASAVAGHEVVISAFNGGWGSADLRARHAAGSQAILDGVKRSGVPRLLVLGGAGSLEIAPGQRLVDSPEFPEQWKQGALGAADALDQLRGEQRLDWVFLSPAMLLEPGQRSGKFRLGGDQVLFDAKGESRISLEDLAVAMLDEAEQPRHHRQRFTVAYLEHHHHHH,soluble
